B1: Splicing factor rtf2 (Schizosaccharomyces pombe (strain ATCC 38366 / 972)), Q10154 (parent)
chain: MGNDGGSLPTRNELVKEPGKVPPLDIDFKRSVKSSQFSQCAITDEPLYPPIVSCGLGKLYNKASILQMLLDRSSVPKSPSHIKSLKDVVQLQVELDDSGKVLWLCPITRHVMSDTYQFAYIVPCGHVFEYSALKQFGEKMCFQCNQVYEEKDVIPINPNAEQLKTLSKRLLDLALSEKTHSLNKASKKSNKNGDKKRKHVSKSNSKHAKHELRTNRMLDGENVKSETSVTDMERVKRVKI
partner: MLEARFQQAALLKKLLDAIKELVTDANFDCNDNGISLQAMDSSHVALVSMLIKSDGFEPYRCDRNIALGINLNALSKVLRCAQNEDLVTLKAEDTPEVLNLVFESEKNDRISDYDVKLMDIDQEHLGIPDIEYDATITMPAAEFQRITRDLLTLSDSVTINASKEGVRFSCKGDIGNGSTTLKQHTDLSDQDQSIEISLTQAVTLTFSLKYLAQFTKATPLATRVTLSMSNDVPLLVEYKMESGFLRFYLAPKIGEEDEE

Variants of: B1
Details: with pcna_schpo pcn1, Q03392

effect of a mutation on the interaction	Variant
disrupting interaction	C141G
